Assay results reported in patent US20190338009A1 (ZEALAND PHARMA A S, published 2019).
Square brackets hold non-standard residues; d marks the D form. Aib = CC(C)(N)C(=O)O

T1: human GLP-2 receptor (hGLP2-R) (human, UniProt O95838 1-553)
T1 sequence (looked up): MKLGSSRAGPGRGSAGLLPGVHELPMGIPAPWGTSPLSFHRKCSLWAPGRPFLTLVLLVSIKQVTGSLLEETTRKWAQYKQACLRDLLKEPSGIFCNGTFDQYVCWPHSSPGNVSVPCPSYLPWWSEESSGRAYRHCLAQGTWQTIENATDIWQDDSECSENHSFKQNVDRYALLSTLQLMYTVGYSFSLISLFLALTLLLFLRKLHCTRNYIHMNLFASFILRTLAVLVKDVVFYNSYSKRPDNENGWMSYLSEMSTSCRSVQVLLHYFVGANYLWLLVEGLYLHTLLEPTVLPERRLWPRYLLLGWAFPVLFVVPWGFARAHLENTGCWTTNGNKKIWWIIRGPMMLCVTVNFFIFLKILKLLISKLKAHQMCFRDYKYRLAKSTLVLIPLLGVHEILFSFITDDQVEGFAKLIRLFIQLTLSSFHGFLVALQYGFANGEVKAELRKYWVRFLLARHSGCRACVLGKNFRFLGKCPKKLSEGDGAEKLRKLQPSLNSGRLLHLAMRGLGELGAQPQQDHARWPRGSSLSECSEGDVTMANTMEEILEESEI


Legend:
[1] = target: T1, human GLP-2 receptor (hGLP2-R); experiment: cell-based or functional assay
[2] = target: human glucagon-like peptide 1 receptor (GLP-1R) (human, UniProt P43220 24-463); experiment: cell-based or functional assay

Binder	EC50 GLP-2 (nM); cAMP AlphaScreen, HEK293 cells expressing human GLP-2R [1] [nM]	EC50 GLP-1 (nM); cAMP AlphaScreen, HEK293 cells expressing human GLP-1R [2] [nM]
H-H[Aib]EGSFTSELATILDEQAARDFIAWLIEHKITD-OH (SMILES CC[C@H](C)[C@H](NC(=O)[C@H](Cc1ccccc1)NC(=O)[C@H](CC(=O)O)NC(=O)[C@H](CCCNC(=N)N)NC(=O)[C@H](C)NC(=O)[C@H](C)NC(=O)[C@H](CCC(N)=O)NC(=O)[C@H](CCC(=O)O)NC(=O)[C@H](CC(=O)O)NC(=O)[C@H](CC(C)C)NC(=O)[C@@H](NC(=O)[C@@H](NC(=O)[C@H](C)NC(=O)[C@H](CC(C)C)NC(=O)[C@H](CCC(=O)O)NC(=O)[C@H](CO)NC(=O)[C@@H](NC(=O)[C@H](Cc1ccccc1)NC(=O)[C@H](CO)NC(=O)CNC(=O)[C@H](CCC(=O)O)NC(=O)C(C)(C)NC(=O)[C@@H](N)Cc1c[nH]cn1)[C@@H](C)O)[C@@H](C)O)[C@@H](C)CC)C(=O)N[C@@H](C)C(=O)N[C@@H](Cc1c[nH]c2ccccc12)C(=O)N[C@@H](CC(C)C)C(=O)N[C@H](C(=O)N[C@@H](CCC(=O)O)C(=O)N[C@@H](Cc1c[nH]cn1)C(=O)N[C@@H](CCCCN)C(=O)N[C@H](C(=O)N[C@H](C(=O)N[C@@H](CC(=O)O)C(=O)O)[C@@H](C)O)[C@@H](C)CC)[C@@H](C)CC) [Compound 4]	0.044	0.015
H-H[Aib]EGSFTSELATILDEQAARDFIAWLIHHKITD-OH (SMILES CC[C@H](C)[C@H](NC(=O)[C@H](Cc1ccccc1)NC(=O)[C@H](CC(=O)O)NC(=O)[C@H](CCCNC(=N)N)NC(=O)[C@H](C)NC(=O)[C@H](C)NC(=O)[C@H](CCC(N)=O)NC(=O)[C@H](CCC(=O)O)NC(=O)[C@H](CC(=O)O)NC(=O)[C@H](CC(C)C)NC(=O)[C@@H](NC(=O)[C@@H](NC(=O)[C@H](C)NC(=O)[C@H](CC(C)C)NC(=O)[C@H](CCC(=O)O)NC(=O)[C@H](CO)NC(=O)[C@@H](NC(=O)[C@H](Cc1ccccc1)NC(=O)[C@H](CO)NC(=O)CNC(=O)[C@H](CCC(=O)O)NC(=O)C(C)(C)NC(=O)[C@@H](N)Cc1c[nH]cn1)[C@@H](C)O)[C@@H](C)O)[C@@H](C)CC)C(=O)N[C@@H](C)C(=O)N[C@@H](Cc1c[nH]c2ccccc12)C(=O)N[C@@H](CC(C)C)C(=O)N[C@H](C(=O)N[C@@H](Cc1c[nH]cn1)C(=O)N[C@@H](Cc1c[nH]cn1)C(=O)N[C@@H](CCCCN)C(=O)N[C@H](C(=O)N[C@H](C(=O)N[C@@H](CC(=O)O)C(=O)O)[C@@H](C)O)[C@@H](C)CC)[C@@H](C)CC) [Compound 6]	0.047	0.014
H-H[Aib]EGSFTSELATILDEQAARDFIAWLIYHKITD-OH (SMILES CC[C@H](C)[C@H](NC(=O)[C@H](Cc1ccccc1)NC(=O)[C@H](CC(=O)O)NC(=O)[C@H](CCCNC(=N)N)NC(=O)[C@H](C)NC(=O)[C@H](C)NC(=O)[C@H](CCC(N)=O)NC(=O)[C@H](CCC(=O)O)NC(=O)[C@H](CC(=O)O)NC(=O)[C@H](CC(C)C)NC(=O)[C@@H](NC(=O)[C@@H](NC(=O)[C@H](C)NC(=O)[C@H](CC(C)C)NC(=O)[C@H](CCC(=O)O)NC(=O)[C@H](CO)NC(=O)[C@@H](NC(=O)[C@H](Cc1ccccc1)NC(=O)[C@H](CO)NC(=O)CNC(=O)[C@H](CCC(=O)O)NC(=O)C(C)(C)NC(=O)[C@@H](N)Cc1c[nH]cn1)[C@@H](C)O)[C@@H](C)O)[C@@H](C)CC)C(=O)N[C@@H](C)C(=O)N[C@@H](Cc1c[nH]c2ccccc12)C(=O)N[C@@H](CC(C)C)C(=O)N[C@H](C(=O)N[C@@H](Cc1ccc(O)cc1)C(=O)N[C@@H](Cc1c[nH]cn1)C(=O)N[C@@H](CCCCN)C(=O)N[C@H](C(=O)N[C@H](C(=O)N[C@@H](CC(=O)O)C(=O)O)[C@@H](C)O)[C@@H](C)CC)[C@@H](C)CC) [Compound 7]	0.11	0.017
H-H[Aib]EGTFTSELATILDEQAARDFIAWLIEHKITD-OH (SMILES CC[C@H](C)[C@H](NC(=O)[C@H](Cc1ccccc1)NC(=O)[C@H](CC(=O)O)NC(=O)[C@H](CCCNC(=N)N)NC(=O)[C@H](C)NC(=O)[C@H](C)NC(=O)[C@H](CCC(N)=O)NC(=O)[C@H](CCC(=O)O)NC(=O)[C@H](CC(=O)O)NC(=O)[C@H](CC(C)C)NC(=O)[C@@H](NC(=O)[C@@H](NC(=O)[C@H](C)NC(=O)[C@H](CC(C)C)NC(=O)[C@H](CCC(=O)O)NC(=O)[C@H](CO)NC(=O)[C@@H](NC(=O)[C@H](Cc1ccccc1)NC(=O)[C@@H](NC(=O)CNC(=O)[C@H](CCC(=O)O)NC(=O)C(C)(C)NC(=O)[C@@H](N)Cc1c[nH]cn1)[C@@H](C)O)[C@@H](C)O)[C@@H](C)O)[C@@H](C)CC)C(=O)N[C@@H](C)C(=O)N[C@@H](Cc1c[nH]c2ccccc12)C(=O)N[C@@H](CC(C)C)C(=O)N[C@H](C(=O)N[C@@H](CCC(=O)O)C(=O)N[C@@H](Cc1c[nH]cn1)C(=O)N[C@@H](CCCCN)C(=O)N[C@H](C(=O)N[C@H](C(=O)N[C@@H](CC(=O)O)C(=O)O)[C@@H](C)O)[C@@H](C)CC)[C@@H](C)CC) [Compound 5]	0.067	0.0098
H-H[Aib]EGTFTSELATILDEQAARDFIAWLIAHKITD-OH (SMILES CC[C@H](C)[C@H](NC(=O)[C@H](CC(C)C)NC(=O)[C@H](Cc1c[nH]c2ccccc12)NC(=O)[C@H](C)NC(=O)[C@@H](NC(=O)[C@H](Cc1ccccc1)NC(=O)[C@H](CC(=O)O)NC(=O)[C@H](CCCNC(=N)N)NC(=O)[C@H](C)NC(=O)[C@H](C)NC(=O)[C@H](CCC(N)=O)NC(=O)[C@H](CCC(=O)O)NC(=O)[C@H](CC(=O)O)NC(=O)[C@H](CC(C)C)NC(=O)[C@@H](NC(=O)[C@@H](NC(=O)[C@H](C)NC(=O)[C@H](CC(C)C)NC(=O)[C@H](CCC(=O)O)NC(=O)[C@H](CO)NC(=O)[C@@H](NC(=O)[C@H](Cc1ccccc1)NC(=O)[C@@H](NC(=O)CNC(=O)[C@H](CCC(=O)O)NC(=O)C(C)(C)NC(=O)[C@@H](N)Cc1c[nH]cn1)[C@@H](C)O)[C@@H](C)O)[C@@H](C)O)[C@@H](C)CC)[C@@H](C)CC)C(=O)N[C@@H](C)C(=O)N[C@@H](Cc1c[nH]cn1)C(=O)N[C@@H](CCCCN)C(=O)N[C@H](C(=O)N[C@H](C(=O)N[C@@H](CC(=O)O)C(=O)O)[C@@H](C)O)[C@@H](C)CC) [Compound 3]	0.036	0.0074

Further lines, results first:

EC50 GLP-2 (nM); cAMP AlphaScreen, HEK293 cells expressing human GLP-2R [1] [nM]	EC50 GLP-1 (nM); cAMP AlphaScreen, HEK293 cells expressing human GLP-1R [2] [nM]	Binder
0.084	0.021	H-H[Aib]EGSFTSELATILDEQAARDFIAWLILHKITD-OH (SMILES CC[C@H](C)[C@H](NC(=O)[C@H](Cc1ccccc1)NC(=O)[C@H](CC(=O)O)NC(=O)[C@H](CCCNC(=N)N)NC(=O)[C@H](C)NC(=O)[C@H](C)NC(=O)[C@H](CCC(N)=O)NC(=O)[C@H](CCC(=O)O)NC(=O)[C@H](CC(=O)O)NC(=O)[C@H](CC(C)C)NC(=O)[C@@H](NC(=O)[C@@H](NC(=O)[C@H](C)NC(=O)[C@H](CC(C)C)NC(=O)[C@H](CCC(=O)O)NC(=O)[C@H](CO)NC(=O)[C@@H](NC(=O)[C@H](Cc1ccccc1)NC(=O)[C@H](CO)NC(=O)CNC(=O)[C@H](CCC(=O)O)NC(=O)C(C)(C)NC(=O)[C@@H](N)Cc1c[nH]cn1)[C@@H](C)O)[C@@H](C)O)[C@@H](C)CC)C(=O)N[C@@H](C)C(=O)N[C@@H](Cc1c[nH]c2ccccc12)C(=O)N[C@@H](CC(C)C)C(=O)N[C@H](C(=O)N[C@@H](CC(C)C)C(=O)N[C@@H](Cc1c[nH]cn1)C(=O)N[C@@H](CCCCN)C(=O)N[C@H](C(=O)N[C@H](C(=O)N[C@@H](CC(=O)O)C(=O)O)[C@@H](C)O)[C@@H](C)CC)[C@@H](C)CC) [Compound 8]
0.041	0.007	H-H[Aib]EGTFTDELATILDEQAARDFIAWLIAHKITD-OH (SMILES CC[C@H](C)[C@H](NC(=O)[C@H](CC(C)C)NC(=O)[C@H](Cc1c[nH]c2ccccc12)NC(=O)[C@H](C)NC(=O)[C@@H](NC(=O)[C@H](Cc1ccccc1)NC(=O)[C@H](CC(=O)O)NC(=O)[C@H](CCCNC(=N)N)NC(=O)[C@H](C)NC(=O)[C@H](C)NC(=O)[C@H](CCC(N)=O)NC(=O)[C@H](CCC(=O)O)NC(=O)[C@H](CC(=O)O)NC(=O)[C@H](CC(C)C)NC(=O)[C@@H](NC(=O)[C@@H](NC(=O)[C@H](C)NC(=O)[C@H](CC(C)C)NC(=O)[C@H](CCC(=O)O)NC(=O)[C@H](CC(=O)O)NC(=O)[C@@H](NC(=O)[C@H](Cc1ccccc1)NC(=O)[C@@H](NC(=O)CNC(=O)[C@H](CCC(=O)O)NC(=O)C(C)(C)NC(=O)[C@@H](N)Cc1c[nH]cn1)[C@@H](C)O)[C@@H](C)O)[C@@H](C)O)[C@@H](C)CC)[C@@H](C)CC)C(=O)N[C@@H](C)C(=O)N[C@@H](Cc1c[nH]cn1)C(=O)N[C@@H](CCCCN)C(=O)N[C@H](C(=O)N[C@H](C(=O)N[C@@H](CC(=O)O)C(=O)O)[C@@H](C)O)[C@@H](C)CC) [Compound 9]
–	39	HGDGSFSDEMNTILDNLAARDFINWLIQTKITD [Teduglutide]
